From paper PMC9482650, “Quantitative fragmentomics allow affinity mapping of interactomes” (Nature Communications, 2022)

T1: MPP6, Q9NZW5
T1 sequence (Q9NZW5 125-219, limits assumed, looked up): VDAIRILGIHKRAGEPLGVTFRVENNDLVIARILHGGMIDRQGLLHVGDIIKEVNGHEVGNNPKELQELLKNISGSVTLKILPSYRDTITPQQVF

T2: APBA1_1, Q02410
T2 sequence (Q02410 651-752, limits assumed, looked up): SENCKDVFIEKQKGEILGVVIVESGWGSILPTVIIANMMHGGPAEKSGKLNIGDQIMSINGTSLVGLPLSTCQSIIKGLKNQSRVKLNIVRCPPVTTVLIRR

T3: PARD3B_1, Q8TEW8
T3 sequence (Q8TEW8 196-299, limits assumed, looked up): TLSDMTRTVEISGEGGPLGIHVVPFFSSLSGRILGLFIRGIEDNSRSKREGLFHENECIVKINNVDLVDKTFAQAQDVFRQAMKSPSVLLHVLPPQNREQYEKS

T4: GRIP1_3, Q9Y3R0
T4 sequence (Q9Y3R0 247-346, limits assumed, looked up): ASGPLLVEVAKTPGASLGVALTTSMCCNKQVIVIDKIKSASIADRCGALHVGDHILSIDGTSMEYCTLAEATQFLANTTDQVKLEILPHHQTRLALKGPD

T5: APBA2_2, Q99767
T5 sequence (Q99767 654-744, limits assumed, looked up): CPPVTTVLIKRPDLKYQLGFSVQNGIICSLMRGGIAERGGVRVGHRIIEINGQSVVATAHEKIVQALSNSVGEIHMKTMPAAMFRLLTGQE

T6: GRIP1_2, Q9Y3R0
T6 sequence (Q9Y3R0 145-248, limits assumed, looked up): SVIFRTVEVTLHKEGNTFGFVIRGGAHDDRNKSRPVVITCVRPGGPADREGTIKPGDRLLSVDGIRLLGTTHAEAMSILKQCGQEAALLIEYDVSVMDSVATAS

T7: SHANK1, Q9Y566
T7 sequence (Q9Y566 658-767, limits assumed, looked up): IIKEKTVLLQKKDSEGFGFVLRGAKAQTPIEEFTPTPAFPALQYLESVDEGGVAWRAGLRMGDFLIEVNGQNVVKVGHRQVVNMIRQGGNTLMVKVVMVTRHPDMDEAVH

T8: ARHGEF11, O15085
T8 sequence (O15085 42-136, limits assumed, looked up): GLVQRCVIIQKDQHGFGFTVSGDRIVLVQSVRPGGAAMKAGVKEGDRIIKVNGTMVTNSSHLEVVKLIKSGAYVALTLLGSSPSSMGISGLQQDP

T9: DLG3_2, Q92796
T9 sequence (Q92796 221-321, limits assumed, looked up): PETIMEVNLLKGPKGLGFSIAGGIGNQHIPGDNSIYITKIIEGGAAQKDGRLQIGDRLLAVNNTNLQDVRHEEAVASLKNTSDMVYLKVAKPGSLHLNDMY

T10: HTRA3, P83110
T10 sequence (P83110 354-453, limits assumed, looked up): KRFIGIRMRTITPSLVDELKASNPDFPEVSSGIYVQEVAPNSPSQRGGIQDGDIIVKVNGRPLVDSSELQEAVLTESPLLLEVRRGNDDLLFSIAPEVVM

T11: DLG3_3, Q92796
T11 sequence (Q92796 374-475, limits assumed, looked up): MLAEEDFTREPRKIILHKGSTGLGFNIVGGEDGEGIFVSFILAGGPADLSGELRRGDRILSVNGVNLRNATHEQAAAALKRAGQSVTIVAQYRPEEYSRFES

T12: MPDZ_12, O75970
T12 sequence (O75970 1857-1958, limits assumed, looked up): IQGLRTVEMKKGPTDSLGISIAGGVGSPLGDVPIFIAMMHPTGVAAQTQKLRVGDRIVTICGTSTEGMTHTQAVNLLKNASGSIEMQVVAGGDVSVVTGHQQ


target: T1, MPP6, Q9NZW5; assay: holdup assay; set-up: key: below the threshold = too weak to quantify, mostly under pKd 3.1 to 4; settings: plain residues with an end cap or a label only (N-terminal biotin on a linker: ado-ado)

Binder | pKd
SVISRREWYV [NECTIN3, Q9NQS3] | 4.48
RDFDYIADWC [PKN2, Q16513] | below the threshold
NRVDSKETEC [ADAM17, P78536] | below the threshold

target: MAGI1_2, Q96QZ7; assay: holdup assay; set-up: key: below the threshold = too weak to quantify, mostly under pKd 3.1 to 4; settings: plain residues with an end cap or a label only (N-terminal biotin on a linker: ado-ado)
Sequence (Q96QZ7 456-580): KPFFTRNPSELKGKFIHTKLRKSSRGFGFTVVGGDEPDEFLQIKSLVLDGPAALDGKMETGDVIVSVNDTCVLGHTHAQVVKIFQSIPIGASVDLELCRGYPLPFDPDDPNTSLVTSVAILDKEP

Binder | pKd
SVISRREWYV [NECTIN3, Q9NQS3] | 4.78
RDFDYIADWC [PKN2, Q16513] | below the threshold
NRVDSKETEC [ADAM17, P78536] | below the threshold

target: TJP1_2, Q07157; assay: holdup assay; set-up: key: below the threshold = too weak to quantify, mostly under pKd 3.1 to 4; settings: plain residues with an end cap or a label only (N-terminal biotin on a linker: ado-ado)
Sequence (Q07157 181-274): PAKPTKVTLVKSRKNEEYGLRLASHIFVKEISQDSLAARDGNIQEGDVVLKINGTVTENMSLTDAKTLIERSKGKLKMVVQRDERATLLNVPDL

Binder | pKd
SVISRREWYV [NECTIN3, Q9NQS3] | 3.82
RDFDYIADWC [PKN2, Q16513] | 3.6
NRVDSKETEC [ADAM17, P78536] | below the threshold

target: DLG5_1, Q8TDM6; assay: holdup assay; set-up: key: below the threshold = too weak to quantify, mostly under pKd 3.1 to 4; settings: plain residues with an end cap or a label only (N-terminal biotin on a linker: ado-ado)
Sequence (Q8TDM6 617-713): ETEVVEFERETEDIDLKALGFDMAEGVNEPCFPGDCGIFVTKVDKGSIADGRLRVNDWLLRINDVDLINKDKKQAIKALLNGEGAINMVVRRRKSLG

Binder | pKd
SVISRREWYV [NECTIN3, Q9NQS3] | below the threshold
RDFDYIADWC [PKN2, Q16513] | below the threshold
NRVDSKETEC [ADAM17, P78536] | below the threshold

target: Inadl_1, Q8NI35; assay: holdup assay; set-up: key: below the threshold = too weak to quantify, mostly under pKd 3.1 to 4; settings: plain residues with an end cap or a label only (N-terminal biotin on a linker: ado-ado)
Sequence (Q8NI35 113-229): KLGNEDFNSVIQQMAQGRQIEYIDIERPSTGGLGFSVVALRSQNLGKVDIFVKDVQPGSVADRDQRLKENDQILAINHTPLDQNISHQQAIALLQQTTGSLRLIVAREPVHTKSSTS

Binder | pKd
SVISRREWYV [NECTIN3, Q9NQS3] | 4.25
RDFDYIADWC [PKN2, Q16513] | below the threshold
NRVDSKETEC [ADAM17, P78536] | below the threshold

target: DLG2_3, Q15700; assay: holdup assay; set-up: key: below the threshold = too weak to quantify, mostly under pKd 3.1 to 4; settings: plain residues with an end cap or a label only (N-terminal biotin on a linker: ado-ado)

Binder | pKd
SVISRREWYV [NECTIN3, Q9NQS3] | 4.05
RDFDYIADWC [PKN2, Q16513] | 3.77
NRVDSKETEC [ADAM17, P78536] | 3.97

target: T2, APBA1_1, Q02410; assay: holdup assay; set-up: key: below the threshold = too weak to quantify, mostly under pKd 3.1 to 4; settings: plain residues with an end cap or a label only (N-terminal biotin on a linker: ado-ado)

Binder | pKd
SVISRREWYV [NECTIN3, Q9NQS3] | below the threshold
RDFDYIADWC [PKN2, Q16513] | 3.67
NRVDSKETEC [ADAM17, P78536] | below the threshold

target: Inadl_2, Q8NI35; assay: holdup assay; set-up: key: below the threshold = too weak to quantify, mostly under pKd 3.1 to 4; settings: plain residues with an end cap or a label only (N-terminal biotin on a linker: ado-ado)
Sequence (Q8NI35 238-335): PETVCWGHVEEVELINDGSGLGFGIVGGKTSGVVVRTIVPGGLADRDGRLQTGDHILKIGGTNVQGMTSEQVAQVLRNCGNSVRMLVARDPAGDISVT

Binder | pKd
SVISRREWYV [NECTIN3, Q9NQS3] | 4.91
RDFDYIADWC [PKN2, Q16513] | below the threshold
NRVDSKETEC [ADAM17, P78536] | below the threshold

target: T3, PARD3B_1, Q8TEW8; assay: holdup assay; set-up: key: below the threshold = too weak to quantify, mostly under pKd 3.1 to 4; settings: plain residues with an end cap or a label only (N-terminal biotin on a linker: ado-ado)

Binder | pKd
SVISRREWYV [NECTIN3, Q9NQS3] | 4.79
RDFDYIADWC [PKN2, Q16513] | 3.54
NRVDSKETEC [ADAM17, P78536] | below the threshold

target: T4, GRIP1_3, Q9Y3R0; assay: holdup assay; set-up: key: below the threshold = too weak to quantify, mostly under pKd 3.1 to 4; settings: plain residues with an end cap or a label only (N-terminal biotin on a linker: ado-ado)

Binder | pKd
SVISRREWYV [NECTIN3, Q9NQS3] | below the threshold
RDFDYIADWC [PKN2, Q16513] | below the threshold
NRVDSKETEC [ADAM17, P78536] | below the threshold

target: T5, APBA2_2, Q99767; assay: holdup assay; set-up: key: below the threshold = too weak to quantify, mostly under pKd 3.1 to 4; settings: plain residues with an end cap or a label only (N-terminal biotin on a linker: ado-ado)

Binder | pKd
SVISRREWYV [NECTIN3, Q9NQS3] | below the threshold
RDFDYIADWC [PKN2, Q16513] | below the threshold
NRVDSKETEC [ADAM17, P78536] | below the threshold

target: LAP2, Q96RT1; assay: holdup assay; set-up: key: below the threshold = too weak to quantify, mostly under pKd 3.1 to 4; settings: plain residues with an end cap or a label only (N-terminal biotin on a linker: ado-ado)
Sequence (Q96RT1 other isoform, or with tags, fused parts or gaps): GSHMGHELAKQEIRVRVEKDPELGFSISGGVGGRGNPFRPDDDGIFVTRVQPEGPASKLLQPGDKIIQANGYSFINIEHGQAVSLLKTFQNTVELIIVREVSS

Binder | pKd
SVISRREWYV [NECTIN3, Q9NQS3] | 3.59
RDFDYIADWC [PKN2, Q16513] | 4.01
NRVDSKETEC [ADAM17, P78536] | below the threshold

target: T6, GRIP1_2, Q9Y3R0; assay: holdup assay; set-up: key: below the threshold = too weak to quantify, mostly under pKd 3.1 to 4; settings: plain residues with an end cap or a label only (N-terminal biotin on a linker: ado-ado)

Binder | pKd
SVISRREWYV [NECTIN3, Q9NQS3] | below the threshold
RDFDYIADWC [PKN2, Q16513] | 3.7
NRVDSKETEC [ADAM17, P78536] | 3.59

target: GRID2IP_2, A4D2P6; assay: holdup assay; set-up: key: below the threshold = too weak to quantify, mostly under pKd 3.1 to 4; settings: plain residues with an end cap or a label only (N-terminal biotin on a linker: ado-ado)
Sequence (A4D2P6 272-370): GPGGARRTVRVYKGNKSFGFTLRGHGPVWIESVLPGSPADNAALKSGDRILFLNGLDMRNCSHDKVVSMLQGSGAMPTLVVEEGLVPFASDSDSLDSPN

Binder | pKd
SVISRREWYV [NECTIN3, Q9NQS3] | 3.49
RDFDYIADWC [PKN2, Q16513] | below the threshold
NRVDSKETEC [ADAM17, P78536] | below the threshold

target: GRASP, Q7Z6J2; assay: holdup assay; set-up: key: below the threshold = too weak to quantify, mostly under pKd 3.1 to 4; settings: plain residues with an end cap or a label only (N-terminal biotin on a linker: ado-ado)
Sequence (Q7Z6J2 96-193): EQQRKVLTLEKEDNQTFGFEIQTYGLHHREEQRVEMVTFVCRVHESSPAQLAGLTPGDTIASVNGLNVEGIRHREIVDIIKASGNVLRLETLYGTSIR

Binder | pKd
SVISRREWYV [NECTIN3, Q9NQS3] | below the threshold
RDFDYIADWC [PKN2, Q16513] | 4.3
NRVDSKETEC [ADAM17, P78536] | below the threshold

target: GRIP2_4, Q9C0E4; assay: holdup assay; set-up: key: below the threshold = too weak to quantify, mostly under pKd 3.1 to 4; settings: plain residues with an end cap or a label only (N-terminal biotin on a linker: ado-ado)
Sequence (Q9C0E4 446-548): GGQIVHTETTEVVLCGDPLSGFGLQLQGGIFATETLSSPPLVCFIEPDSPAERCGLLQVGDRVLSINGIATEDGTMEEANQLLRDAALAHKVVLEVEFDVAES

Binder | pKd
SVISRREWYV [NECTIN3, Q9NQS3] | below the threshold
RDFDYIADWC [PKN2, Q16513] | below the threshold
NRVDSKETEC [ADAM17, P78536] | below the threshold

target: T7, SHANK1, Q9Y566; assay: holdup assay; set-up: key: below the threshold = too weak to quantify, mostly under pKd 3.1 to 4; settings: plain residues with an end cap or a label only (N-terminal biotin on a linker: ado-ado)

Binder | pKd
SVISRREWYV [NECTIN3, Q9NQS3] | below the threshold
RDFDYIADWC [PKN2, Q16513] | below the threshold
NRVDSKETEC [ADAM17, P78536] | below the threshold

target: T8, ARHGEF11, O15085; assay: holdup assay; set-up: key: below the threshold = too weak to quantify, mostly under pKd 3.1 to 4; settings: plain residues with an end cap or a label only (N-terminal biotin on a linker: ado-ado)

Binder | pKd
SVISRREWYV [NECTIN3, Q9NQS3] | 4.55
RDFDYIADWC [PKN2, Q16513] | 3.68
NRVDSKETEC [ADAM17, P78536] | 3.59

target: GOPC, Q9HD26; assay: holdup assay; set-up: key: below the threshold = too weak to quantify, mostly under pKd 3.1 to 4; settings: plain residues with an end cap or a label only (N-terminal biotin on a linker: ado-ado)

Binder | pKd
SVISRREWYV [NECTIN3, Q9NQS3] | below the threshold
RDFDYIADWC [PKN2, Q16513] | below the threshold
NRVDSKETEC [ADAM17, P78536] | below the threshold

target: T9, DLG3_2, Q92796; assay: holdup assay; set-up: key: below the threshold = too weak to quantify, mostly under pKd 3.1 to 4; settings: plain residues with an end cap or a label only (N-terminal biotin on a linker: ado-ado)

Binder | pKd
SVISRREWYV [NECTIN3, Q9NQS3] | 3.66
RDFDYIADWC [PKN2, Q16513] | 4.16
NRVDSKETEC [ADAM17, P78536] | 4.67

target: T10, HTRA3, P83110; assay: holdup assay; set-up: key: below the threshold = too weak to quantify, mostly under pKd 3.1 to 4; settings: plain residues with an end cap or a label only (N-terminal biotin on a linker: ado-ado)

Binder | pKd
SVISRREWYV [NECTIN3, Q9NQS3] | 4.99
RDFDYIADWC [PKN2, Q16513] | 5.86
NRVDSKETEC [ADAM17, P78536] | 3.65

target: SCRIB_2, Q14160; assay: holdup assay; set-up: key: below the threshold = too weak to quantify, mostly under pKd 3.1 to 4; settings: plain residues with an end cap or a label only (N-terminal biotin on a linker: ado-ado)
Sequence (Q14160 857-960): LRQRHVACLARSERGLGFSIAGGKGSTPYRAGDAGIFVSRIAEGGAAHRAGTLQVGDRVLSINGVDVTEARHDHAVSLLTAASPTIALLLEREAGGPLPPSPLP

Binder | pKd
SVISRREWYV [NECTIN3, Q9NQS3] | below the threshold
RDFDYIADWC [PKN2, Q16513] | below the threshold
NRVDSKETEC [ADAM17, P78536] | below the threshold

target: T11, DLG3_3, Q92796; assay: holdup assay; set-up: key: below the threshold = too weak to quantify, mostly under pKd 3.1 to 4; settings: plain residues with an end cap or a label only (N-terminal biotin on a linker: ado-ado)

Binder | pKd
SVISRREWYV [NECTIN3, Q9NQS3] | 3.71
RDFDYIADWC [PKN2, Q16513] | below the threshold
NRVDSKETEC [ADAM17, P78536] | 3.95

target: T12, MPDZ_12, O75970; assay: holdup assay; set-up: key: below the threshold = too weak to quantify, mostly under pKd 3.1 to 4; settings: plain residues with an end cap or a label only (N-terminal biotin on a linker: ado-ado)

Binder | pKd
SVISRREWYV [NECTIN3, Q9NQS3] | below the threshold
RDFDYIADWC [PKN2, Q16513] | 4.2
NRVDSKETEC [ADAM17, P78536] | below the threshold
